Data on one substance can be found in PMC12102759.

This test concerns the target G3BP1 NTF2-like domain (human) (UniProt Q13283). Nature of the test: fluorescence polarisation. On the technique in general: Polarisation of emitted light reports the rotation of a fluorescent probe.

Chain of G3BP1 NTF2-like domain (human) (Q13283 1-139): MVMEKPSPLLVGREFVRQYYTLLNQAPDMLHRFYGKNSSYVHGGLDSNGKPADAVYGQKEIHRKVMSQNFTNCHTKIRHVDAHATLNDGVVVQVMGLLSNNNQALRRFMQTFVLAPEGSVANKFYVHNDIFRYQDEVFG

As a reminder, the IC50 is the midpoint of a concentration-inhibition curve. Read a high IC50 as lower potency. The substance “SARS-CoV-2 N wt peptide 12-26 (peptide; other documents disagree on this pair)” registered an IC50 of 8.7 µM.
